doi:10.1101/2024.09.03.610921 (bioRxiv, 2024)

Biological target: recombinant human histone H3.1 (human, UniProt P68431 1-136)
Assay: pull-down

B1: RAGE^124-341-His-FLAG (extracellular region of RAGE lacking the V domain) (domain or fragment)
chain: PEIVDSASELTAGVPNKVGTCVSEGSYPAGTLSWHLDGKPLVPNEKGVSVKEQTRRHPETGLFTLQSELMVTPARGGDPRPTFSCSFSPGLPRHRALRTAPIQPRVWEPVPLEEVQLVVEPEGGAVAPGGTVTLTCEVPAQPSPQIHWMKDGVPLPLPPSPVLILPEIGPQDQGTYSCVATHSSHGPQESRAVSISIIEPGEEGPTAGSVGGSGLGTL
binding result: binds
